Test results: the supplement of paper PMC5998384

Legend:
[1] = test system: HeLa Kyoto; experiment: solubility in G1/S (NP-40 vs SDS abundance) (log2 ratio); higher = more soluble; conditions: cell cycle stage: G1/S
[2] = test system: HeLa Kyoto; experiment: solubility change mitosis vs G1/S (difference of NP-40 vs SDS log2 ratios) (log2 ratio difference); higher = more soluble in mitosis
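Throughout, for solubility change mitosis vs G1/S (difference of NP-40 vs SDS log2 ratios): synchronized HeLa Kyoto cells (double thymidine block for G1/S, nocodazole release for mitosis), protein amounts in NP-40 versus SDS lysates quantified by mass spectrometry, three biological replicates.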
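Throughout, for solubility in G1/S (NP-40 vs SDS abundance): HeLa Kyoto cells arrested at G1/S by double thymidine block, proteins quantified by TMT10plex mass spectrometry in mild NP-40 versus SDS extracts, three biological replicates.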

Sequence	solubility in G1/S (log2) [1]	solubility change mitosis (log2) [2]
MILQRLFRFSSVIRSAVSVHLRRNIGVTAVAFNKELDPIQKLFVDKIREYKSKRQTSGGPVDASSEYQQELERELFKLKQMFGNADMNTFPTFKFEDPKFEVIEKPQA [ATP5J]	-0.962	0.55
MMAQSNMFTVADVLSQDELRKKLYQTFKDRGILDTLKTQLRNQLIHELMHPVLSGELQPRSISVEGSSLLIGASNSLVADHLQRCGYEYSLSVFFPESGLAKEKVFTMQDLLQLIKINPTSSLYKSLVSGSDKENQKGFLMHFLKELAEYHQAKESCNMETQTSSTFNRDSLAEKLQLIDDQFADAYPQRIKFESLEIKLNEYKREIEEQLRAEMCQKLKFFKDTEIAKIKMEAKKKYEKELTMFQNDFEKACQAKSEALVLREKSTLERIHKHQEIETKEIYAQRQLLLKDMDLLRGREAELKQRVEAFELNQKLQEEKHKSITEALRRQEQNIKSFEETYDRKLKNELLKYQLELKDDYIIRTNRLIEDERKNKEKAVHLQEELIAINSKKEELNQSVNRVKELELELESVKAQSLAITKQNHMLNEKVKEMSDYSLLKEEKLELLAQNKLLKQQLEESRNENLRLLNRLAQPAPELAVFQKELRKAEKAIVVEHEEFESCRQALHKQLQDEIEHSAQLKAQILGYKASVKSLTTQVADLKLQLKQTQTALENEVYCNPKQSVIDRSVNGLINGNVVPCNGEISGDFLNNPFKQENVLARMVASRITNYPTAWVEGSSPDSDLEFVANTKARVKELQQEAERLEKAFRSYHRRVIKNSAKSPLAAKSPPSLHLLEAFKNITSSSPERHIFGEDRVVSEQPQVGTLEERNDVVEALTGSAASRLRGGTSSRRLSSTPLPKAKRSLESEMYLEGLGRSHIASPSPCPDRMPLPSPTESRHSLSIPPVSSPPEQKVGLYRRQTELQDKSEFSDVDKLAFKDNEEFESSFESAGNMPRQLEMGGLSPAGDMSHVDAAAAAVPLSYQHPSVDQKQIEEQKEEEKIREQQVKERRQREERRQSNLQEVLERERRELEKLYQERKMIEESLKIKIKKELEMENELEMSNQEIKDKSAHSENPLEKYMKIIQQEQDQESADKSSKKMVQEGSLVDTLQSSDKVESLTGFSHEELDDSW [OFD1]	-0.146	0.252
MMDPCSVGVQLRTTNECHKTYYTRHTGFKTLQELSSNDMLLLQLRTGMTLSGNNTICFHHVKIYIDRFEDLQKSCCDPFNIHKKLAKKNLHVIDLDDATFLSAKFGRQLVPGWKLCPKCTQIINGSVDVDTEDRQKRKPESDGRTAKALRSLQFTNPGRQTEFAPETGKREKRRLTKNATAGSDRQVIPAKSKVYDSQGLLIFSGMDLCDCLDEDCLGCFYACPACGSTKCGAECRCDRKWLYEQIEIEGGEIIHNKHAG [ARL14EP]	-0.0781	-0.0185
MLQSLAGSSCVRLVERHRSAWCFGFLVLGYLLYLVFGAVVFSSVELPYEDLLRQELRKLKRRFLEEHECLSEQQLEQFLGRVLEASNYGVSVLSNASGNWNWDFTSALFFASTVLSTTGYGHTVPLSDGGKAFCIIYSVIGIPFTLLFLTAVVQRITVHVTRRPVLYFHIRWGFSKQVVAIVHAVLLGFVTVSCFFFIPAAVFSVLEDDWNFLESFYFCFISLSTIGLGDYVPGEGYNQKFRELYKIGITCYLLLGLIAMLVVLETFCELHELKKFRKMFYVKKDKDEDQVHIIEHDQLSFSSITDQAAGMKEDQKQNEPFVATQSSACVDGPANH [KCNK1]	-0.169	-0.0475
MAHLGPTPPPHSLNYKSEDRLSEQDWPAYFKVPCCGVDTSQIESEEAEVDVRERETQRDREPKRARDLTLRDSCTDNSMQFGTRTTTAEPGFMGTWQNADTNLLFRMSQQAIRCTLVNCTCECFQPGKINLRTCDQCKHGWVAHALDKLSTQHLYHPTQVEIVQSNVVFDISSLMLYGTQAVPVRLKILLDRLFSVLKQEEVLHILHGLGWTLRDYVRGYILQDAAGKVLDRWAIMSREEEIITLQQFLRFGETKSIVELMAIQEKEGQAVAVPSSKTDSDIRTFIESNNRTRSPSLLAHLENSNPSSIHHFENIPNSLAFLLPFQYINPVSAPLLGLPPNGLLLEQPGLRLREPSLSTQNEYNESSESEVSPTPYKNDQTPNRNALTSITNVEPKTEPACVSPIQNSAPVSDLTKTEHPKSSFRIHRMRRMGSASRKGRVFCNACGKTFYDKGTLKIHYNAVHLKIKHRCTIEGCNMVFSSLRSRNRHSANPNPRLHMPMLRNNRDKDLIRATSGAATPVIASTKSNLALTSPGRPPMGFTTPPLDPVLQNPLPSQLVFSGLKTVQPVPPFYRSLLTPGEMVSPPTSLPTSPIIPTSGTIEQHPPPPSEPVVPAVMMATHEPSADLAPKKKPRKSSMPVKIEKEIIDTADEFDDEDDDPNDGGAVVNDMSHDNHCHSQEEMSPGMSVKDFSKHNRTRCISRTEIRRADSMTSEDQEPERDYENESESSEPKLGEESMEGDEHIHSEVSEKVLMNSERPDENHSEPSHQDVIKVKEEFTDPTYDMFYMSQYGLYNGGGASMAALHESFTSSLNYGSPQKFSPEGDLCSSPDPKICYVCKKSFKSSYSVKLHYRNVHLKEMHVCTVAGCNAAFPSRRSRDRHSANINLHRKLLTKELDDMGLDSSQPSLSKDLRDEFLVKIYGAQHPMGLDVREDASSPAGTEDSHLNGYGRGMAEDYMVLDLSTTSSLQSSSSIHSSRESDAGSDEGILLDDIDGASDSGESAHKAEAPALPGSLGAEVSGSLMFSSLSGSNGGIMCNICHKMYSNKGTLRVHYKTVHLREMHKCKVPGCNMMFSSVRSRNRHSQNPNLHKNIPFTSVD [BNC2]	-0.628	0.235
MFRLLSWSLGRGFLRAAGRRCRGCSARLLPGLAGGPGPEVQVPPSRVAPHGRGPGLLPLLAALAWFSRPAAAEEEEQQGADGAAAEDGADEAEAEIIQLLKRAKLSIMKDEPEEAELILHDALRLAYQTDNKKAITYTYDLMANLAFIRGQLENAEQLFKATMSYLLGGGMKQEDNAIIEISLKLASIYAAQNRQEFAVAGYEFCISTLEEKIEREKELAEDIMSVEEKANTHLLLGMCLDACARYLLFSKQPSQAQRMYEKALQISEEIQGERHPQTIVLMSDLATTLDAQGRFDEAYIYMQRASDLARQINHPELHMVLSNLAAVLMHRERYTQAKEIYQEALKQAKLKKDEISVQHIREELAELSKKSRPLTNSVKL [TTC19]	0.331	0.00456
MAATDIARQVGEGCRTVPLAGHVGFDSLPDQLVNKSVSQGFCFNILCVGETGLGKSTLMDTLFNTKFEGEPATHTQPGVQLQSNTYDLQESNVRLKLTIVSTVGFGDQINKEDSYKPIVEFIDAQFEAYLQEELKIRRVLHTYHDSRIHVCLYFIAPTGHSLKSLDLVTMKKLDSKVNIIPIIAKADAISKSELTKFKIKITSELVSNGVQIYQFPTDDESVAEINGTMNAHLPFAVIGSTEELKIGNKMMRARQYPWGTVQVENEAHCDFVKLREMLIRVNMEDLREQTHTRHYELYRRCKLEEMGFKDTDPDSKPFSLQETYEAKRNEFLGELQKKEEEMRQMFVQRVKEKEAELKEAEKELHEKFDRLKKLHQDEKKKLEDKKKSLDDEVNAFKQRKTAAELLQSQGSQAGGSQTLKRDKEKKNNPWLCTE [SEPT6]	0.186	-0.0909
MDSTKEKCDSYKDDLLLRMGLNDNKAGMEGLDKEKINKIIMEATKGSRFYGNELKKEKQVNQRIENMMQQKAQITSQQLRKAQLQVDRFAMELEQSRNLSNTIVHIDMDAFYAAVEMRDNPELKDKPIAVGSMSMLSTSNYHARRFGVRAAMPGFIAKRLCPQLIIVPPNFDKYRAVSKEVKEILADYDPNFMAMSLDEAYLNITKHLEERQNWPEDKRRYFIKMGSSVENDNPGKEVNKLSEHERSISPLLFEESPSDVQPPGDPFQVNFEEQNNPQILQNSVVFGTSAQEVVKEIRFRIEQKTTLTASAGIAPNTMLAKVCSDKNKPNGQYQILPNRQAVMDFIKDLPIRKVSGIGKVTEKMLKALGIITCTELYQQRALLSLLFSETSWHYFLHISLGLGSTHLTRDGERKSMSVERTFSEINKAEEQYSLCQELCSELAQDLQKERLKGRTVTIKLKNVNFEVKTRASTVSSVVSTAEEIFAIAKELLKTEIDADFPHPLRLRLMGVRISSFPNEEDRKHQQRSIIGFLQAGNQALSATECTLEKTDKDKFVKPLEMSHKKSFFDKKRSERKWSHQDTFKCEAVNKQSFQTSQPFQVLKKKMNENLEISENSDDCQILTCPVCFRAQGCISLEALNKHVDECLDGPSISENFKMFSCSHVSATKVNKKENVPASSLCEKQDYEAHPKIKEISSVDCIALVDTIDNSSKAESIDALSNKHSKEECSSLPSKSFNIEHCHQNSSSTVSLENEDVGSFRQEYRQPYLCEVKTGQALVCPVCNVEQKTSDLTLFNVHVDVCLNKSFIQELRKDKFNPVNQPKESSRSTGSSSGVQKAVTRTKRPGLMTKYSTSKKIKPNNPKHTLDIFFK [POLK]	-0.534	0.335
